Reference: paper PMC7485568

Target: recombinant human C2
Assay: ECL_MSD
Details: pH 6.0; 0.2 mol/L citric acid, 0.2 mol/L sodium citrate; 150 mmol/L NaCl

ARGX-117
EC50: 32.2 µg/mL
